target: canine IL-4RA (construct not given) (canine); assay: SPR, combinatorial Fab-SASA clone

| Kd [nM] | koff [s⁻¹] | kon [M⁻¹ s⁻¹] | Binder |
| --- | --- | --- | --- |
| 0.94 | 0.000138 | 147000 | AHF21170 (Fab, V domains shown, not shown: small tags and cut ends) VH: EVQLVESGGDLVKPGGSLRLSCVASGFTFRDYAMTWVRQAPGKGLQWVSLINGSGGKTYYADAVKGRFTISRDNAKNTLYLQMNSLRAEDTAVYYCAVDRLTKTIRPQYYGLWVWGQGTLVTVSS VL: DIVMTQTPLSLSVSPGETASISCRSSQSLTYSIGYNYLDWYLQKPGQSPQGLIYLGSKRASGVPDRFSGSGSGTDFTLRISRVEANDTGVYYCMQGLQSPLTFGQGTKLEIKR |
| 0.521 | 9.58e-05 | 184000 | AHF21174 (Fab, V domains shown, not shown: small tags and cut ends) VH: EVQLVESGGDLVKPGGSLRLSCVASGFTFRDYAMTWVRQAPGKGLQWVSLINGSGGKTYYADAVKGRFTISRDNAKNTLYLQMNSLRAEDTAVYYCAVDRLTKTIRPQYYGLWVWGQGTLVTVSS VL: DIVMTQTPLSLSVSPGETASISCRSSQSLTYSIGYNYLDWYLQKPGQSPQGLIYLGHKRASGVPDRFSGSGSGTDFTLRISRVEANDTGVYYCMQGLQSPLSFGQGTKLEIKR |
| 0.309 | 9.11e-05 | 295000 | AHF21176 (Fab, V domains shown, not shown: small tags and cut ends) VH: EVQLVESGGDLVKPGGSLRLSCVASGFTFRDYAMTWVRQAPGKGLQWVSLINGSGGKTYYADAVKGRFTISRDNAKNTLYLQMNSLRAEDTAVYYCAVDRKTKTIRPQYYGLWHWGQGTLVTVSS VL: DIVMTQTPLSLSVSPGETASISCRSSQSLTYSIGYNYLDWYLQKPGQSPQGLIYLGHKRASGVPDRFSGSGSGTDFTLRISRVEANDTGVYYCMQGLQSPLGFGQGTKLEIKR |
| 0.485 | 0.000148 | 306000 | AHF21186 (Fab, V domains shown, not shown: small tags and cut ends) VH: EVQLVESGGDLVKPGGSLRLSCVASGFTFRDYAMTWVRQAPGKGLQWVSLINGSGGKTYYADAVKGRFTISRDNAKNTLYLQMNSLRAEDTAVYYCAVDRLTKTIRPQYYGLWHWGQGTLVTVSS VL: DIVMTQTPLSLSVSPGETASISCRSSQSLLYSIGYNYLDWYLQKPGQSPQGLIYLGHKRASGVPDRFSGSGSGTDFTLRISRVEANDTGVYYCMQGLQSPLTFGQGTKLEIKR |
| 0.466 | 8.27e-05 | 178000 | AHF21178 (Fab, V domains shown, not shown: small tags and cut ends) VH: EVQLVESGGDLVKPGGSLRLSCVASGFTFRDYAMTWVRQAPGKGLQWVSLINGSGGKTYYADAVKGRFTISRDNAKNTLYLQMNSLRAEDTAVYYCAVDRLTKTIRPQYYGLWVWGQGTLVTVSS VL: DIVMTQTPLSLSVSPGETASISCRSSQSLTYSIGYNYLDWYLQKPGQSPQGLIYLGSKRASGVPDRFSGSGSGTDFTLRISRVEANDTGVYYCMQGLQSPLSFGQGTKLEIKR |
| 0.74 | 0.000168 | 226000 | AHF21172 (Fab, V domains shown, not shown: small tags and cut ends) VH: EVQLVESGGDLVKPGGSLRLSCVASGFTFRDYAMTWVRQAPGKGLQWVSLINGSGGKTYYADAVKGRFTISRDNAKNTLYLQMNSLRAEDTAVYYCAVDRLTKTIRPQYYGLWVWGQGTLVTVSS VL: DIVMTQTPLSLSVSPGETASISCRSSQSLLYSIGYNYLDWYLQKPGQSPQGLIYLGHKRASGVPDRFSGSGSGTDFTLRISRVEANDTGVYYCMQGLQSPLTFGQGTKLEIKR |
| 0.442 | 0.000126 | 286000 | AHF21182 (Fab, V domains shown, not shown: small tags and cut ends) VH: EVQLVESGGDLVKPGGSLRLSCVASGFTFRDYAMTWVRQAPGKGLQWVSLINGSGGKTYYADAVKGRFTISRDNAKNTLYLQMNSLRAEDTAVYYCAVDRLTKTIRPQYYGLWHWGQGTLVTVSS VL: DIVMTQTPLSLSVSPGETASISCRSSQSLTYSIGYNYLDWYLQKPGQSPQGLIYLGHKRASGVPDRFSGSGSGTDFTLRISRVEANDTGVYYCMQGLQSPLLFGQGTKLEIKR |
| 1.89 | 0.000543 | 287000 | AHF21184 (Fab, V domains shown, not shown: small tags and cut ends) VH: EVQLVESGGDLVKPGGSLRLSCVASGFTFRDYAMTWVRQAPGKGLQWVSLISGSGGKTYYADAVKGRFTISRDNAKNTLYLQMNSLRAEDTAVYYCAVDRLTKTIRPQYYGLWHWGQGTLVTVSS VL: DIVMTQTPLSLSVSPGETASISCRSSQSLLYSIGYNYLDWYLQKPGQSPQGLIYLGSKRASGVPDRFSGSGSGTDFTLRISRVEANDTGVYYCMQGLQSPLSFGQGTKLEIKR |
| 0.606 | 9.69e-05 | 160000 | AHF21173 (Fab, V domains shown, not shown: small tags and cut ends) VH: EVQLVESGGDLVKPGGSLRLSCVASGFTFRDYAMTWVRQAPGKGLQWVSLINGSGGKTYYADAVKGRFTISRDNAKNTLYLQMNSLRAEDTAVYYCAVDRKTKTIRPQYYGLWVWGQGTLVTVSS VL: DIVMTQTPLSLSVSPGETASISCRSSQSLTYSIGYNYLDWYLQKPGQSPQGLIYLGHKRASGVPDRFSGSGSGTDFTLRISRVEANDTGVYYCMQGLQSPLSFGQGTKLEIKR |
| 0.259 | 5.68e-05 | 219000 | AHF21180 (Fab, V domains shown, not shown: small tags and cut ends) VH: EVQLVESGGDLVKPGGSLRLSCVASGFTFRDYAMTWVRQAPGKGLQWVSLINGSGGKTYYADAVKGRFTISRDNAKNTLYLQMNSLRAEDTAVYYCAVDRKTKTIRPQYYGLWHWGQGTLVTVSS VL: DIVMTQTPLSLSVSPGETASISCRSSQSLTYSIGYNYLDWYLQKPGQSPQGLIYLGSKRASGVPDRFSGSGSGTDFTLRISRVEANDTGVYYCMQPLQSPLTFGQGTKLEIKR |
| 0.561 | 9.52e-05 | 170000 | AHF21177 (Fab, V domains shown, not shown: small tags and cut ends) VH: EVQLVESGGDLVKPGGSLRLSCVASGFTFRDYAMTWVRQAPGKGLQWVSLINGSGGKTYYADAVKGRFTISRDNAKNTLYLQMNSLRAEDTAVYYCAVDRLTKTIRPQYYGLWVWGQGTLVTVSS VL: DIVMTQTPLSLSVSPGETASISCRSSQSLTYSIGYNYLDWYLQKPGQSPQGLIYLGSKRASGVPDRFSGSGSGTDFTLRISRVEANDTGVYYCMQGLQSPLGFGQGTKLEIKR |
| 0.68 | 0.000152 | 223000 | AHF21190 (Fab, V domains shown, not shown: small tags and cut ends) VH: EVQLVESGGDLVKPGGSLRLSCVASGFTFRDYAMTWVRQAPGKGLQWVSLINGSGGKTYYADAVKGRFTISRDNAKNTLYLQMNSLRAEDTAVYYCAVDRLTKTIRPQYYGLWVWGQGTLVTVSS VL: DIVMTQTPLSLSVSPGETASISCRSSQSLLYSIGYNYLDWYLQKPGQSPQGLIYLGHKRASGVPDRFSGSGSGTDFTLRISRVEANDTGVYYCMQGLQSPLSFGQGTKLEIKR |
| 0.857 | 0.000278 | 325000 | AHF21188 (Fab, V domains shown, not shown: small tags and cut ends) VH: EVQLVESGGDLVKPGGSLRLSCVASGFTFRDYAMTWVRQAPGKGLQWVSLISGSGGKTYYADAVKGRFTISRDNAKNTLYLQMNSLRAEDTAVYYCAVDRLTKTIRPQYYGLWHWGQGTLVTVSS VL: DIVMTQTPLSLSVSPGETASISCRSSQSLTYSIGYNYLDWYLQKPGQSPQGLIYLGSKRASGVPDRFSGSGSGTDFTLRISRVEANDTGVYYCMQGLQSPLGFGQGTKLEIKR |
| 0.47 | 0.000134 | 285000 | AHF21171 (Fab, V domains shown, not shown: small tags and cut ends) VH: EVQLVESGGDLVKPGGSLRLSCVASGFTFRDYAMTWVRQAPGKGLQWVSLINGSGGKTYYADAVKGRFTISRDNAKNTLYLQMNSLRAEDTAVYYCAVDRLTKTIRPQYYGLWHWGQGTLVTVSS VL: DIVMTQTPLSLSVSPGETASISCRSSQSLLYSIGYNYLDWYLQKPGQSPQGLIYLGHKRASGVPDRFSGSGSGTDFTLRISRVEANDTGVYYCMQGLQSPLSFGQGTKLEIKR |
| 0.769 | 0.000132 | 172000 | AHF21187 (Fab, V domains shown, not shown: small tags and cut ends) VH: EVQLVESGGDLVKPGGSLRLSCVASGFTFRDYAMTWVRQAPGKGLQWVSLINGSGGKTYYADAVKGRFTISRDNAKNTLYLQMNSLRAEDTAVYYCAVDRKTKTIRPQYYGLWVWGQGTLVTVSS VL: DIVMTQTPLSLSVSPGETASISCRSSQSLTYSIGYNYLDWYLQKPGQSPQGLIYLGHKRASGVPDRFSGSGSGTDFTLRISRVEANDTGVYYCMQGLQSPLGFGQGTKLEIKR |

target: canine IL-4RA (construct not given) (canine); assay: SPR, IL-4RA immobilised, periplasmic Fab

| Improvement over parental [fold] | RU max [RU] | koff [s⁻¹] | Binder |
| --- | --- | --- | --- |
| 2 | 196 | 0.000143 | FJ2246MP06F11 (Fab, V domains shown) VH: EVQLVESGGDLVKPGGSLRLSCVASGFTFRDYAMTWVRQAPGKGLQWVSLINGDGSKTYYADAVKGRFTISRDNAKNTLYLQMNSLRAEDTAVYYCAVDRLTKTIRPQYYGLWVWGQGTLVTVSS VL: DIVMTQTPLSLSVSPGETASISCRSSQSLLYSIGYNYLDWYLQKPGQSPQGLIYLGSKRASGVPDRFSGSGSGTDFTLRISRVEANDTGVYYCMQGLQSPLTFGQGTKLEIKR |
| 2 | 344 | 0.000142 | FJ2246MP05G01 (Fab, V domains shown) VH: EVQLVESGGDLVKPGGSLRLSCVASGFPFRDFAMTWVRQAPGKGLQWVSLISGSGGKTYYADAVKGRFTISRDNAKNTLYLQMNSLRAEDTAVYYCAVDRLTKTIRPQYYGLWVWGQGTLVTVSS VL: DIVMTQTPLSLSVSPGETASISCRSSQSLLYSIGYNYLDWYLQKPGQSPQGLIYLGSKRASGVPDRFSGSGSGTDFTLRISRVEANDTGVYYCMQGLQSPLTFGQGTKLEIKR |
| 1 | 105 | 0.00028 | FJ2246MP06G06 (Parental Fab of TB640_005) (Fab, V domains shown) VH: EVQLVESGGDLVKPGGSLRLSCVASGFTFRDYAMTWVRQAPGKGLQWVSLISGSGGKTYYADAVKGRFTISRDNAKNTLYLQMNSLRAEDTAVYYCAVDRLTKTIRPQYYGLWVWGQGTLVTVSS VL: DIVMTQTPLSLSVSPGETASISCRSSQSLLYSIGYNYLDWYLQKPGQSPQGLIYLGSKRASGVPDRFSGSGSGTDFTLRISRVEANDTGVYYCMQGLQSPLTFGQGTKLEIKR |
| 2 | 329 | 0.000142 | FJ2246MP05A04 (Fab, V domains shown) VH: EVQLVESGGDLVKPGGSLRLSCVASGLPFRDYAMTWVRQAPGKGLQWVSLISGSGGKTYYADAVKGRFTISRDNAKNTLYLQMNSLRAEDTAVYYCAVDRLTKTIRPQYYGLWVWGQGTLVTVSS VL: DIVMTQTPLSLSVSPGETASISCRSSQSLLYSIGYNYLDWYLQKPGQSPQGLIYLGSKRASGVPDRFSGSGSGTDFTLRISRVEANDTGVYYCMQGLQSPLTFGQGTKLEIKR |
